Literature values as cited in paper PMC4775371.

Target: H1.0 (UniProt P07305)
Sequence of UniProt P07305 (P07305 2-194): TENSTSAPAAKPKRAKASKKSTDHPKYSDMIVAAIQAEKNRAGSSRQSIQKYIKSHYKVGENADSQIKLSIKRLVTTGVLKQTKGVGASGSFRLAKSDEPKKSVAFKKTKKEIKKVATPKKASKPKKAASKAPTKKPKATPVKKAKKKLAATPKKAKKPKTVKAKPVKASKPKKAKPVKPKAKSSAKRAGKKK

Kd: 0.032 µM
Substance: FACT (from UniProt Q9Y5B9)
